# Assay: soluble on expression in E. coli; label from the status in PepcDB or PDB records
row,Sequence,soluble on expression in E. coli
1,MNEFTAVKELSEKLLEDYKTESSFFFASPTRTILAEGEFTTVKHHEIESFPELVQAVLRNAKQAGNPNPIVVGALPFDRRKEVQLIVPEYSRISERLQLDPTNHLEINRNLTFEMTPVPDHEVYMKGVKQGIEKIKDGDLKKIVLSRSLDVKSSGKIDKQKLLRELAEHNKHGYTFAVNLPKDENENSKTLIGASPELLVSRHGMQVISNPLAGSRPRSDDPVEDKRRAEELLSSPKDLHEHAVVVEAVAAALRPYCHTLYVPEKPSVIHSEAMWHLSTEVKGELKNPNTSSLELAIALHPTPAVCGTPMEEAREAIQKIEPFDREFFTGMLGWSDLNGDGEWIVTIRCAEVQENTLRLYAGAGVVAESKPEDELAETSAKFQTMLKALGLNDSSLNEK,not soluble
2,GPSSPAGGEARVHVLVLSSWRSGSSFVGQLFNQHPDVFYLMEPAWHVWTTLSQGSAATLHMAVRDLVRSVFLCDMDVFDAYLPWRRNLSDLFQWAVSRALCSPPACSAFPRGAISSEAVCKPLCARQSFTLAREACRSYSHVVLKEVRFFNLQVLYPLLSDPALNLRIVHLVRDPRAVLRSREQTAKALARDNGIVLGTNGTWVEADPGLRVVREVCRSHVRIAEAATLKPPPFLRGRYRLVRFEDLAREPLAEIRALYAFTGLSLTPQLEAWIHNITHGSGPGARREAFKTSSRNALNVSQAWRHALPFAKIRRVQELCAGALQLLGYRPVYSEDEQRNLALDLVLPRGLNGFTWASSTASHPRN,soluble
3,MAHHHHHHMAVASKGRIADVNQEELTKIGPKIDDVLSICLASFDSLRDMAFKFQYEQAAEKAAYQSGETKPDPMTQLMHVLQRMVDLTLGTAKAVYDQTLLEWRRRKGEGDADSPASQLASSQSMTSPEVLRNSSVEDFAAGSVAWIERGSHLSLLSLEVLSSVLLAHHYLRRDLQKYMLDVNVLDYLEKVFSMERDHELCYFPEGFKTECMRLIANLTHNNVDVNAALVERDTFLFNILSATQIDEENPGMVEWAEFALRNICESSAAAREKIRKLAPQGVTDQSREILAGRCSYSFSSTGKVQLHTQKPPLH,soluble
4,STSGPGGPAAAAGGRKENHQWYVCNREKLCESLQAVFVQSYLDQGTQIFLNNSIEKSGWLFIQLYHSFVSSVFSLFMSRTSINGLLGRGSMFVFSPDQFQRLLKINPDWKTHRLLDLGAGDGEVTKIMSPHFEEIYATELSETMIWQLQKKKYRVLGINEWQNTGFQYDVISCLNLLDRCDQPLTLLKDIRSVLEPTRGRVILALVLPFHPYVENVGGKWEKPSEILEIKGQNWEEQVNSLPEVFRKAGFVIEAFTRLPYLCEGDMYNDYYVLDDAVFVLKPV,soluble
5,MPKSEIRKLLQEIKKQVDNPGNSSTTEIKKMASEAGIDEQTAEEIYHLLTEFYQAVEEHGGIEKYMHSNISWLKIELELLSACYQIAILEDMKVLDISEMLSLNDLRIFPKTPSQLQNTYYKLKKELIQVEDIPKNKPGRKRKTQKNTKKEKTNIFGKVVPALEHHHHHH,soluble
6,MLDLFADEAPWQEPLAPGAVVLRRFAFRAAQSLLDDIGFVASQSPFRQMVTPGGYTMSVAMTNCGALGWTTDRHGYCYAVRDPLTDKPWPALPLSFASVCRQAAIAAGYASFQPDACLINRYAPGAKLSLHQDKDEPDLRAPIVSVSLGVPAVFQFGGLRRSDPIQRILLEHGDIVVWGGESRLFYHGIQPLKAGFHPMTGEFRYNLTFRQAAEKELEHHHHHH,soluble
7,MGSDKIHHHHHHMAIACVNTRASCGVEAPKVTVEVHLSNGLPAFNLVGLPEASVKEARERVRSALINAGFEFPMRRITVNLAPADLPKQGGRYDLPIAVGILAASEQIPANSLKNLEFVGELALSGQIRYCQGLLPAIIAAKRQDNTLILPLENRHDAELVGYQKVFFGSHLQSLAAFLQGQAPLPELDTHLEWVSEEQSYDSSQCLSDVIGQYQAKQALEIAAAGNHNLLMLGPPGTGKTMLASRMMALLPALSYEEALEVAAIHSVAGLDIKPQDFLKRPFRAPHHTSSSISLVGGGSIPKPGEISLAHRGVLFLDEVAEFPRKVLDCLREPMETGEVVISRAAAKLTFLSRFQLIAAMNPSPSGDIDANNRATPDQVQRYLARLSGPFLDRFDLTIEVPKLPAGTLTQAMAPSETSQDVAKRVRRARDIQLARSGVLNSELTGKQLKLFSGLTDADLIFLEQSVVKLGLSVRSFHRIQRVARTIADLEQSPNTERRHLAQALGYRAMDRLLARLSQQY,not soluble
8,MSNLVLSLDISTSGTGWALFKGSDLIQSGVLKHKSKSYFERGRYMASQLRLIQSRALKKYDCYFSTIAVEKNSVMGPNQQSMLKIGIVTGIILGRLIADNVVFINVSTWRKYWKFSYKDRSKKSMKLQSKIKVEQEFNKSVKDDEADAILIGSYYVNQGYLDELETHDYY,soluble
9,MSLSDRLTAFKELIQAGGAKRPADLIIKNGQLVNVMTAEIYPAEVAIYQGKIVAVDPDVSAYQGTETRVIDAKQQYIVPGLIDGHIHVECSKLSMTSFAEAVVPHGTTSIISGLDEYISVIGVDGLSEIFKEVDQLPMRVFWGAPFKTPYTIPASTIADNIDSTVQAQLQKRSDVYGVWETVREAVETLDEDTLKTLLNAQDNHVPVWGCAPMATGTKLNEYLMSGVRVDHESYDHQELLEKVRKGINVVIRESSVTHFLAENIRAITETNGQIARHVSFCTDDVNAMDIVNKGHLDHLVRLAIAAGVAPMTAIQMATINSAEAYRIDDQVGLIAPGRNADILLVSDLEAFEIKRVLAKGQPVATDGHINQSIERPVRPASLANTIIREAVQASDFEYHVAADASQVTVQTIASEGPFVRHAKTKTLTVEDGIVQIDPAKDVALISVLERFGKNGNQSLGFTSGWTLKKGAMASTAAPDDNNIIVMGVNPDDMALAVNTLIERDGGQVVVADGQILSFLPLPIAGIVSDVTPAELAVQEEGILKASQAIGSEVVDPMFYMTFLPITAIPDLAITDLGNVDCNELRLFDPILTIQEGHHHHHH,soluble
10,MEDPLGRLEWIKFLSAFYDKEDKAENYFNQQVSKVMATENKVSSLKKPKVAFGMVDNGKVYIPAKNSYAAKMVDMAGGDYIFKDLNNKSGYITLEDFYSKSKDADVLIYSSSKEYTPSLKSMLSAAPILKTIKPVKNKKVWCFGKDYYQAIDKTDEIIEDLASIFHPESFKGYKIKHYSHLEHHHHHH,soluble
11,MYRPKDHGWVEVIVGPMYSGKSEELIRRIRRAKIAKQKIQVFKPEIDNRYSKEDVVSHMGEKEQAVAIKNSREILKYFEEDTEVIAIDEVQFFDDEIVEIVNKIAESGRRVICAGLDMDFRGKPFGPIPELMAIAEFVDKIQAICVVCGNPATRTQRLINGKPAFYDDPVVLIGAMESYEARCRKCHVVPQKKEVMAGDPLEHHHHHH,soluble
12,MAHHHHHHMNQDLDKELREALQQDKYDLQLFLRFLKSYVVSGSQPEKQLLLGILLQALPRFHTSDFSACISLISSHVQDASYIEKDIILIYDLENYLSSGNFPQFWQVWRESEGTLPARPSFEPNMRAAILTVIGCTLGHIQTKDLSVYLGLKSGEKLEEVLREAARIAGDAVQLVGADEQAVVFQKSVFNAPESDSNQELKRFSDTVTIVSL,soluble
13,NEVESGYYFTTLDHYIYEAEEANLGPGVVVVERQYIQDRIPSWTGPGFVRVPEGAYLEFFIDNIPYSMEYEILIRYEPQLPDHWEKAVITVQRPGKIPASSRCGNTVPDDDNQVVSLSPGSRYVVLPRPVCFEKGMNYTVRLELPQYTASGSDVESPYTFIDSLVLMPYCKSLDIFTVGGSGDGEVTNSAWETFQRYRCLENSRSVVKTPMTDVCRNIIFSISALIHQTGL,soluble
14,MAYVESFYMDASLESDADVLPASESDMFEAQFIADVPLDGDAIIRIVDSQLAFEQRNHVVSDYCTMKAAELEKNPNQLTMNSSVMDNQQYFAPPKSESSQYAWNTNDVVSSHHQYAAQSPNIYTNDYHTSEPSDYAYI,not soluble
15,MGSDKIHHHHHHMDIKQLKFLIALDQTRHFGQAAALCHITQPTLSMRLRNLEDELDLVLVKRGQRFEGFTEAGERILAWARTLLAAHDGLQAEAASCRGQVVGSLRLGTVPLASFNPMHLLLPLREKYPELHFQLSSLSSEQVIDGLSRNQLDLGICYLDQVNTSFFEVIELGTTTMGLLHDTRHFQFTSDRLRWDELGDIPLGLLSKGMHYRQSLDLSFRSRGLEPNAVLESDSSFQLIQAINTGICCAIMPLDCGLEDLSEHLRIVPVADAAIHSPVGLLLRRSEPRSAIAEQCFAEARGLFQAS,not soluble
